Results as given in patent US20160185837A1 (Medimmune Limited, priority 2013, published 2016).
pEC50: −log10 of the molar value. Like-named read-outs stand apart in the source and are kept apart here.

Experiments:
Type in all cases: cell-based
[1] = biological target: T1, human GIP receptor (hGIPr) (Homo sapiens, UniProt P48546); assay: BSA-cAMP assay, cells expressing human GIP receptor; details: BSA-cAMP assay, read-out: hGIPr cAMP activity EC50
T1 construct: expressed in transfected cells
T1 sequence (P48546 22-466): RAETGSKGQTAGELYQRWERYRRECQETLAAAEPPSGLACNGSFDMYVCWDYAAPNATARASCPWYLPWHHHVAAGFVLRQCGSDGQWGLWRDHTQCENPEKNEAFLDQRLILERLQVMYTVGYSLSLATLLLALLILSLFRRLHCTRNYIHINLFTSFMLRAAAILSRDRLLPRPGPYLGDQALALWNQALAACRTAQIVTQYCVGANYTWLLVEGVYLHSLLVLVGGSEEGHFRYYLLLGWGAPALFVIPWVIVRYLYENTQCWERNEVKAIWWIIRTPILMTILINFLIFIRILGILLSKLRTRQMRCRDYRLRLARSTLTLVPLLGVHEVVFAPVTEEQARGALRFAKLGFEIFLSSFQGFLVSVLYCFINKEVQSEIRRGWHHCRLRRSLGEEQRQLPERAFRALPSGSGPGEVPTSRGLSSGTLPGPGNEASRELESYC
Summary of the method: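 EC50 came from an unconstrained 4-parameter logistic fit of HTRF cAMP data expressed as percent of maximal native agonist activation, tested on two occasions. Thawed receptor-expressing cells (hGLP-1r, hGIPr at 0.5×10^5 cells/ml) treated 30 min at room temperature in 0.1% BSA-containing medium; two distinct hGIPr lines.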

[2] = biological target: T2, rat GLP-1 receptor (rGLP-1r) (Rattus norvegicus, UniProt P32301); assay: BSA-cAMP assay, cells expressing rat GLP-1 receptor; details: BSA-cAMP assay, read-out: rGLP1r cAMP activity EC50
T2 construct: expressed in transfected cells; host or cells: HEK293s or CHO cells
T2 sequence (P32301 22-463): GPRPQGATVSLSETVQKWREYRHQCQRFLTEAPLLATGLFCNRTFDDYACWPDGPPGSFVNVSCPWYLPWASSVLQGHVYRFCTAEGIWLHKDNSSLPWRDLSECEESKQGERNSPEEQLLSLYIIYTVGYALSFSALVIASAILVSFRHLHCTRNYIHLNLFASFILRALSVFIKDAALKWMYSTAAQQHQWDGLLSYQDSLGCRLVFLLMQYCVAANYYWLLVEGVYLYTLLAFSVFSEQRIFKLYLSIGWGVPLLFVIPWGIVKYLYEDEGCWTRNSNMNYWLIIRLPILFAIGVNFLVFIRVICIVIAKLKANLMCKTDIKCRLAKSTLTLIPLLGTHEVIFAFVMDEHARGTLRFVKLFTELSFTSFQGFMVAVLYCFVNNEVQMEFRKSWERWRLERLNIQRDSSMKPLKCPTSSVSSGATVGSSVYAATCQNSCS
Method: (§1) One basic cAMP assays was performed, differing in the medium used for the assay, the “BSA-cAMP assay”:
(§2) BSA-based assay medium: 0.1% bovine serum albumin (BSA) in
In certain aspects, the assay can also be carried out in medium supplemented with serum albumin that corresponds to the receptor being tested, e.g., human serum albumin for testing cAMP activity at hGIPr or hGLP-1r, rat serum albumin for testing cAMP activity at rGIPr or rGLP-1r, and so on. […] All sample dilutions were made in duplicate.
A frozen cryo-vial of cells expressing the receptor of interest was thawed rapidly in a water-bath, transferred to pre-warmed assay media and spun at 240×g for 5 minutes. Cells were re-suspended in assay buffer at an optimized concentration (e.g., hGLP-1r and hGIPr cells at 0.5×10^5 cells/ml).
To this, 5 μL cell suspension was added and the plates incubated at room temperature for 30 minutes.
cAMP levels were measured using a commercially available cAMP dynamic 2 HTRF kit (Cisbio, Cat #62AM4PEJ), following the two step protocol as per manufacturer's recommendations. In brief; anti-cAMP cryptate (donor fluorophore) and cAMP-d2 (acceptor fluorophore) were made up separately by diluting each 1/20 in conjugate & lysis buffer provided in the kit. 5 μL anti-cAMP cryptate was added to all wells of the assay plate, and 5 μL cAMP-d2 added to all wells except non-specific binding (NSB) wells, to which conjugate and lysis buffer was added. […] Data was transformed to % Delta F as described in manufacturer's guidelines and then transformed to percent activation of maximal native agonist response and analysed by 4-parameter logistic fit to determine EC50 values.
We used unconstrained 4 parameter logistic fit of data, curve mid-point to determine EC50. This was tested on two occasions, not two batches.
In order to be able to carry out in vivo studies in rodents, IP088 was tested for potency against the mouse receptors mGIPr and mGLP-1r as well as the rat receptors rGIPr and rGLP-1r, using cells expressing the respective receptors in the cAMP assay described above.

hGIPr (C3) = biological target: T3, hGIPr (C3) (Homo sapiens, UniProt P48546); assay: BSA-cAMP assay, second human GIPr cell line hGIPr (C3); details: Batch 1, second hGIPr cell line, read-out: hGIPr (C3) cAMP activity EC50
T3 construct: expressed in transfected cells
T3 sequence (P48546 22-466): T1 sequence (P48546 22-466)
Method: For human GIPr, two different lines were used, shown as “hGIPr” and “hGIPr (C3)” in Table 11. Peptide activation of these various receptors results in downstream production of cAMP second messenger that can be measured in a functional activity assay.
as §1, §2
Hanks Balanced Salt Solution (GIBCO or Sigma), containing 0.5 mM IBMX (Sigma #17018);
In certain aspects, the assay can also be carried out in medium supplemented with serum albumin that corresponds to the receptor being tested, e.g., human serum albumin for testing cAMP activity at hGIPr or hGLP-1r, rat serum albumin for testing cAMP activity at rGIPr or rGLP-1r, and so on. […]
cAMP levels were measured using a commercially available cAMP dynamic 2 HTRF kit (Cisbio, Cat #62AM4PEJ), following the two step protocol as per manufacturer's recommendations. […] Plates were incubated at room temperature for one hour and then read on an Envision (Perkin Elmer) using excitation wavelength of 320 nm and emission wavelengths of 620 nm & 665 nm. Data was transformed to % Delta F as described in manufacturer's guidelines and then transformed to percent activation of maximal native agonist response and analysed by 4-parameter logistic fit to determine EC50 values. […]

| Substance | pEC50 ([1]; Batch 1) | pEC50 ([1]; Batch 2) | pEC50 ([2]; Batch 1) | pEC50 ([2]; Batch 2) | pEC50 (hGIPr (C3)) |
| --- | --- | --- | --- | --- | --- |
| IP320 (YSEGTFTSDYAAAAEAAAAAAFAAWLAAAAGGGGGSGGGGSGGGGSGGGGSACPPC) | 8.02 | 7.36 | 6.89 | – | – |
| IP396 (YSEGTFTSDYSKLLERQAIDEFIAWLLKGGGGGGGSGGGGSGGGGSGGGGSACPPC) | 11.03 | – | 10.24 | 11.00 | – |
| IP412: Fc fusion, IgG1-TM, SEQ ID NO:387; agonist peptide YSEGTFTSDYSKLLEEEANRLFIEWLLAGG (YSEGTFTSDYSKLLEEEANRLFIEWLLAGGGGGGSGGGGSGGGGSGGGGSATHTCPPC) | – | – | – | – | 8.89 |
